Reference: doi:10.1101/257543 (bioRxiv, 2018)

T1: SERK3 LRR ectodomain (SERK3^1-220), wild type (A. thaliana, UniProt Q94F62 26-220)
T1 sequence (looked up): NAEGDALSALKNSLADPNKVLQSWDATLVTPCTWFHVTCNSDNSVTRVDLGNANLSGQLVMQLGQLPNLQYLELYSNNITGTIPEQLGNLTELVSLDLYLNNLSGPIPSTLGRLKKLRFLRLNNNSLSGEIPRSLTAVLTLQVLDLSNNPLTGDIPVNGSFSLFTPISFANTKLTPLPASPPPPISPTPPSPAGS

T2: SERK3^D122N LRR ectodomain (elg) (A. thaliana, UniProt Q94F62 26-220, D122N)
T2 sequence (looked up): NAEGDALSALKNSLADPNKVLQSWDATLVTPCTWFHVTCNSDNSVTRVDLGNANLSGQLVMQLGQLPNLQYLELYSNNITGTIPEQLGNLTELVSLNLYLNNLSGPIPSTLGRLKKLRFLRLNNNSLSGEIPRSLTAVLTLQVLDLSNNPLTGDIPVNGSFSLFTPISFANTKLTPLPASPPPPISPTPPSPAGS

T3: SERK3^F60A LRR ectodomain (A. thaliana, UniProt Q94F62 26-220, F60A)
T3 sequence (looked up): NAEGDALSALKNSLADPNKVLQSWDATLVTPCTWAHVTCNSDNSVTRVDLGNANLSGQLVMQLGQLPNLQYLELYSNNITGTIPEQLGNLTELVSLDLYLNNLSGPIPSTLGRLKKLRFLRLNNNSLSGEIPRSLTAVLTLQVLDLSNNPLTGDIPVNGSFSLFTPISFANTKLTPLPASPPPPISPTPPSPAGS


Tests used:
Assay in all cases: ITC
[1] = target: different SERK ectodomains
[2] = target: T1, SERK3 LRR ectodomain (SERK3^1-220), …
[3] = target: T2, SERK3^D122N LRR ectodomain (elg)
[4] = target: T3, SERK3^F60A LRR ectodomain

| Binder | Kd [1] | Kd [2] | stoichiometry N [2] | fold reduction of binding against wild-type SERK3 [3] | binding result [2] | binding result [4] |
| --- | --- | --- | --- | --- | --- | --- |
| BIR3 LRR ectodomain (BIR3^1-213) (domain or fragment, A. thaliana, UniProt O04567 25-213, looked up, N-glycosylated (fully glycosylated in the crystal; sites not given)) EDDVLCLQGLKNSLIDPSSRLSSWSFPNSSASSICKLTGVSCWNEKENRIISLQLQSMQLAGEIPESLKLCRSLQSLDLSGNDLSGSIPSQICSWLPYLVTLDLSGNKLGGSIPTQIVECKFLNALILSDNKLSGSIPSQLSRLDRLRRLSLAGNDLSGTIPSELARFGGDDFSGNNGLCGKPLSRCGA | 1000 to 3000 nM | ~1000 nM | 1 | ~4 fold |  |  |
| BIR2 LRR ectodomain (BIR2^1-222), wild type (domain or fragment, A. thaliana, UniProt Q9LSI9 29-222, looked up, N-glycan at Asn58 (in the crystal structure)) ADEDDIRCLRGLKASLTDPQNALKSWNFDNTTLGFLCNFVGVSCWNNQENRVINLELRDMGLSGKIPDSLQYCASLQKLDLSSNRLSGNIPTELCNWLPFLVSLDLSNNELNGEIPPDLAKCSFVNSLVLSDNRLSGQIPVQFSALGRLGRFSVANNDLSGRIPVFFSSPSYSSDDFSGNKGLCGRPLSSSCGG | 1000 to 3000 nM |  |  | ~8 fold | binds | binds |
| BIR2^V157D LRR ectodomain (domain or fragment, A. thaliana, UniProt Q9LSI9 29-222, looked up) ADEDDIRCLRGLKASLTDPQNALKSWNFDNTTLGFLCNFVGVSCWNNQENRVINLELRDMGLSGKIPDSLQYCASLQKLDLSSNRLSGNIPTELCNWLPFLVSLDLSNNELNGEIPPDLAKCSFVNSLDLSDNRLSGQIPVQFSALGRLGRFSVANNDLSGRIPVFFSSPSYSSDDFSGNKGLCGRPLSSSCGG |  |  |  |  | binds |  |
| BIR2^W73A LRR ectodomain (domain or fragment, A. thaliana, UniProt Q9LSI9 29-222, looked up) ADEDDIRCLRGLKASLTDPQNALKSWNFDNTTLGFLCNFVGVSCANNQENRVINLELRDMGLSGKIPDSLQYCASLQKLDLSSNRLSGNIPTELCNWLPFLVSLDLSNNELNGEIPPDLAKCSFVNSLVLSDNRLSGQIPVQFSALGRLGRFSVANNDLSGRIPVFFSSPSYSSDDFSGNKGLCGRPLSSSCGG |  |  |  |  | binds |  |
| BIR2^E84R LRR ectodomain (domain or fragment, A. thaliana, UniProt Q9LSI9 29-222, looked up) ADEDDIRCLRGLKASLTDPQNALKSWNFDNTTLGFLCNFVGVSCWNNQENRVINLRLRDMGLSGKIPDSLQYCASLQKLDLSSNRLSGNIPTELCNWLPFLVSLDLSNNELNGEIPPDLAKCSFVNSLVLSDNRLSGQIPVQFSALGRLGRFSVANNDLSGRIPVFFSSPSYSSDDFSGNKGLCGRPLSSSCGG |  |  |  |  | binds |  |
